Results reported in patent publication US11833164B2, “Methods of treating Fabry disease in patients having a mutation in the GLA gene” (Amicus Therapeutics, Inc., priority 2019, dated 2023).

Tested on: mutant form of α-Gal A expressed in HEK-293 cells
Assay: HEK assay (GLP HEK / Migalastat Amenability Assay): α-Gal A activity in lysates of transiently transfected HEK-293 cells incubated with or without 10 μM migalastat
Type: cell-based, human
Settings: for Absolute increase (% WT) / Relative increase: 10 μM migalastat versus baseline; for Baseline α-Gal A activity (% WT): absence of migalastat; for Baseline α-Gal A activity (% WT) / 10 μM migalastat α-Gal A activity (% WT): percentage of baseline wild-type α-Gal A activity; for Baseline α-Gal A activity (% WT) / Baseline α-Gal A activity / 10 μM migalastat α-Gal A activity / 10 μM migalastat α-Gal A activity (% WT): mean ± SEM; for Baseline α-Gal A activity / 10 μM migalastat α-Gal A activity: lysates of HEK-293 cells transiently transfected with the mutant form; for Baseline α-Gal A activity: incubated 5 days in absence of migalastat; for 10 μM migalastat α-Gal A activity: incubated 5 days with 10 μM migalastat; for 10 μM migalastat α-Gal A activity (% WT): with 10 μM migalastat, 5 days
How it was run: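 Activity reported as 4-MU released (nmol/mg/hr), mean±SEM, from lysates of transiently transfected HEK-293 cells expressing mutant α-Gal A, cultured with or without 10 μM migalastat.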

Row | Molecule | Absolute increase (% WT) | Relative increase | Baseline α-Gal A activity (% WT) | Baseline α-Gal A activity | 10 μM migalastat α-Gal A activity | 10 μM migalastat α-Gal A activity (% WT)
1 | K314N (protein) MQLRNPELHLGCALALRFLALVSWDIPGARALDNGLARTPTMGWLHWERFMCNLDCQEEPDSCISEKLFMEMAELMVSEGWKDAGYEYLCIDDCWMAPQRDSEGRLQADPQRFPHGIRQLANYVHSKGLKLGIYADVGNKTCAGFPGSFGYYDIDAQTFADWGVDLLKFDGCYCDSLENLADGYKHMSLALNRTGRSIVYSCEWPLYMWPFQKPNYTEIRQYCNHWRNFADIDDSWKSIKSILDWTSFNQERIVDVAGPGGWNDPDMLVIGNFGLSWNQQVTQMALWAIMAAPLFMSNDLRHISPQAKALLQDNDVIAINQDPLGKQGYQLRQGDNFEVWERPLSGLAWAVAMINRQEIGGPRSYTIAVASLGKGVACNPACFITQLLPVKRKLGFYEWTSRLRSHINPTGTVLLQLENTMQMSLKDLL | 10.8 % WT | 1.2 | 39.1 ± 3.4 % WT | 14205 ± 2418 nmol/mg/h | 17364 ± 2225 nmol/mg/h | 49.9 ± 2.6 % WT
2 | K314T (protein) MQLRNPELHLGCALALRFLALVSWDIPGARALDNGLARTPTMGWLHWERFMCNLDCQEEPDSCISEKLFMEMAELMVSEGWKDAGYEYLCIDDCWMAPQRDSEGRLQADPQRFPHGIRQLANYVHSKGLKLGIYADVGNKTCAGFPGSFGYYDIDAQTFADWGVDLLKFDGCYCDSLENLADGYKHMSLALNRTGRSIVYSCEWPLYMWPFQKPNYTEIRQYCNHWRNFADIDDSWKSIKSILDWTSFNQERIVDVAGPGGWNDPDMLVIGNFGLSWNQQVTQMALWAIMAAPLFMSNDLRHISPQAKALLQDTDVIAINQDPLGKQGYQLRQGDNFEVWERPLSGLAWAVAMINRQEIGGPRSYTIAVASLGKGVACNPACFITQLLPVKRKLGFYEWTSRLRSHINPTGTVLLQLENTMQMSLKDLL | 17.9 % WT | 1.2 | 75.9 ± 4.4 % WT | 25162 ± 2701 nmol/mg/h | 30501 ± 2332 nmol/mg/h | 93.8 ± 4.5 % WT
3 | D315G (protein) MQLRNPELHLGCALALRFLALVSWDIPGARALDNGLARTPTMGWLHWERFMCNLDCQEEPDSCISEKLFMEMAELMVSEGWKDAGYEYLCIDDCWMAPQRDSEGRLQADPQRFPHGIRQLANYVHSKGLKLGIYADVGNKTCAGFPGSFGYYDIDAQTFADWGVDLLKFDGCYCDSLENLADGYKHMSLALNRTGRSIVYSCEWPLYMWPFQKPNYTEIRQYCNHWRNFADIDDSWKSIKSILDWTSFNQERIVDVAGPGGWNDPDMLVIGNFGLSWNQQVTQMALWAIMAAPLFMSNDLRHISPQAKALLQDKGVIAINQDPLGKQGYQLRQGDNFEVWERPLSGLAWAVAMINRQEIGGPRSYTIAVASLGKGVACNPACFITQLLPVKRKLGFYEWTSRLRSHINPTGTVLLQLENTMQMSLKDLL | 23.6 % WT | 1.4 | 49.7 ± 3.7 % WT | 13326 ± 859 nmol/mg/h | 19115 ± 1697 nmol/mg/h | 73.3 ± 8 % WT
4 | D315V (protein) MQLRNPELHLGCALALRFLALVSWDIPGARALDNGLARTPTMGWLHWERFMCNLDCQEEPDSCISEKLFMEMAELMVSEGWKDAGYEYLCIDDCWMAPQRDSEGRLQADPQRFPHGIRQLANYVHSKGLKLGIYADVGNKTCAGFPGSFGYYDIDAQTFADWGVDLLKFDGCYCDSLENLADGYKHMSLALNRTGRSIVYSCEWPLYMWPFQKPNYTEIRQYCNHWRNFADIDDSWKSIKSILDWTSFNQERIVDVAGPGGWNDPDMLVIGNFGLSWNQQVTQMALWAIMAAPLFMSNDLRHISPQAKALLQDKVVIAINQDPLGKQGYQLRQGDNFEVWERPLSGLAWAVAMINRQEIGGPRSYTIAVASLGKGVACNPACFITQLLPVKRKLGFYEWTSRLRSHINPTGTVLLQLENTMQMSLKDLL | 24.8 % WT | 1.8 | 31.2 ± 3.6 % WT | 8191 ± 717 nmol/mg/h | 14580 ± 1235 nmol/mg/h | 56 ± 6 % WT
5 | D315H (protein) MQLRNPELHLGCALALRFLALVSWDIPGARALDNGLARTPTMGWLHWERFMCNLDCQEEPDSCISEKLFMEMAELMVSEGWKDAGYEYLCIDDCWMAPQRDSEGRLQADPQRFPHGIRQLANYVHSKGLKLGIYADVGNKTCAGFPGSFGYYDIDAQTFADWGVDLLKFDGCYCDSLENLADGYKHMSLALNRTGRSIVYSCEWPLYMWPFQKPNYTEIRQYCNHWRNFADIDDSWKSIKSILDWTSFNQERIVDVAGPGGWNDPDMLVIGNFGLSWNQQVTQMALWAIMAAPLFMSNDLRHISPQAKALLQDKHVIAINQDPLGKQGYQLRQGDNFEVWERPLSGLAWAVAMINRQEIGGPRSYTIAVASLGKGVACNPACFITQLLPVKRKLGFYEWTSRLRSHINPTGTVLLQLENTMQMSLKDLL | 17.4 % WT | 1.4 | 35.7 ± 2.8 % WT | 9791 ± 1077 nmol/mg/h | 14136 ± 1573 nmol/mg/h | 53.2 ± 5.5 % WT
6 | D315N (protein) MQLRNPELHLGCALALRFLALVSWDIPGARALDNGLARTPTMGWLHWERFMCNLDCQEEPDSCISEKLFMEMAELMVSEGWKDAGYEYLCIDDCWMAPQRDSEGRLQADPQRFPHGIRQLANYVHSKGLKLGIYADVGNKTCAGFPGSFGYYDIDAQTFADWGVDLLKFDGCYCDSLENLADGYKHMSLALNRTGRSIVYSCEWPLYMWPFQKPNYTEIRQYCNHWRNFADIDDSWKSIKSILDWTSFNQERIVDVAGPGGWNDPDMLVIGNFGLSWNQQVTQMALWAIMAAPLFMSNDLRHISPQAKALLQDKNVIAINQDPLGKQGYQLRQGDNFEVWERPLSGLAWAVAMINRQEIGGPRSYTIAVASLGKGVACNPACFITQLLPVKRKLGFYEWTSRLRSHINPTGTVLLQLENTMQMSLKDLL | 17.9 % WT | 1.5 | 34.1 ± 1.7 % WT | 8553 ± 425 nmol/mg/h | 13037 ± 869 nmol/mg/h | 52.1 ± 3.7 % WT
7 | V316A (protein) MQLRNPELHLGCALALRFLALVSWDIPGARALDNGLARTPTMGWLHWERFMCNLDCQEEPDSCISEKLFMEMAELMVSEGWKDAGYEYLCIDDCWMAPQRDSEGRLQADPQRFPHGIRQLANYVHSKGLKLGIYADVGNKTCAGFPGSFGYYDIDAQTFADWGVDLLKFDGCYCDSLENLADGYKHMSLALNRTGRSIVYSCEWPLYMWPFQKPNYTEIRQYCNHWRNFADIDDSWKSIKSILDWTSFNQERIVDVAGPGGWNDPDMLVIGNFGLSWNQQVTQMALWAIMAAPLFMSNDLRHISPQAKALLQDKDAIAINQDPLGKQGYQLRQGDNFEVWERPLSGLAWAVAMINRQEIGGPRSYTIAVASLGKGVACNPACFITQLLPVKRKLGFYEWTSRLRSHINPTGTVLLQLENTMQMSLKDLL | 22.7 % WT | 1.4 | 48.8 ± 4.1 % WT | 13166 ± 1029 nmol/mg/h | 18908 ± 1577 nmol/mg/h | 71.5 ± 7.1 % WT
8 | D315A (protein) MQLRNPELHLGCALALRFLALVSWDIPGARALDNGLARTPTMGWLHWERFMCNLDCQEEPDSCISEKLFMEMAELMVSEGWKDAGYEYLCIDDCWMAPQRDSEGRLQADPQRFPHGIRQLANYVHSKGLKLGIYADVGNKTCAGFPGSFGYYDIDAQTFADWGVDLLKFDGCYCDSLENLADGYKHMSLALNRTGRSIVYSCEWPLYMWPFQKPNYTEIRQYCNHWRNFADIDDSWKSIKSILDWTSFNQERIVDVAGPGGWNDPDMLVIGNFGLSWNQQVTQMALWAIMAAPLFMSNDLRHISPQAKALLQDKAVIAINQDPLGKQGYQLRQGDNFEVWERPLSGLAWAVAMINRQEIGGPRSYTIAVASLGKGVACNPACFITQLLPVKRKLGFYEWTSRLRSHINPTGTVLLQLENTMQMSLKDLL | 25.1 % WT | 1.3 | 68.3 ± 4.8 % WT | 18519 ± 1370 nmol/mg/h | 24758 ± 1512 nmol/mg/h | 93.4 ± 7 % WT
9 | D315Y (protein) MQLRNPELHLGCALALRFLALVSWDIPGARALDNGLARTPTMGWLHWERFMCNLDCQEEPDSCISEKLFMEMAELMVSEGWKDAGYEYLCIDDCWMAPQRDSEGRLQADPQRFPHGIRQLANYVHSKGLKLGIYADVGNKTCAGFPGSFGYYDIDAQTFADWGVDLLKFDGCYCDSLENLADGYKHMSLALNRTGRSIVYSCEWPLYMWPFQKPNYTEIRQYCNHWRNFADIDDSWKSIKSILDWTSFNQERIVDVAGPGGWNDPDMLVIGNFGLSWNQQVTQMALWAIMAAPLFMSNDLRHISPQAKALLQDKYVIAINQDPLGKQGYQLRQGDNFEVWERPLSGLAWAVAMINRQEIGGPRSYTIAVASLGKGVACNPACFITQLLPVKRKLGFYEWTSRLRSHINPTGTVLLQLENTMQMSLKDLL | 14.2 % WT | 1.4 | 34.5 ± 3.5 % WT | 9198 ± 1179 nmol/mg/h | 12674 ± 1008 nmol/mg/h | 48.7 ± 2.4 % WT
